Source: paper PMC9646525, “Cryo-EM structure of the SEA complex” (Nature, 2022)

Molecular target: the molecule itself
Assay: cryo-EM structure; endogenous SEAC purified from yeast via Sea4-TAP (IgG Dynabeads, TEV elution in 20 mM HEPES-NaOH pH 7.4, 300 mM NaCl, 2 mM DTT), on graphene-oxide-coated grids

B1: Sea4-TAP (natural protein, UniProt P38164 1-1038, looked up)
chain: MGLIKKVTHWSYDNLIDYLSVNPTRDEVTHYKVDPENESDESIIKLHTVKDFGSITCLDYSESEIGMIGVGEKNGYLRIFNISGQNSSSPASHAPVGLNANNETSMTNASGGKAAQAENIVGSVSNLKDTQGYPVSETNYDIRVRAKKQRCINSLGINTNGLIAMGLDRNKHDSSLQIWDMNYHDDSHETINPMFSYCTNESIVSLKFLNDTSVLAASTKFLKEIDVRSPNPIYQHPTRLTYDIKLNPFNDWQFSTYGDDGTLAIWDRRKLSDQASLGDLNVASPLLTFEKLVGSGAASRKYMNSCFRWSCVRNNEFATLHRGDTIKRWRLGYYCDSNRDIAADDDNEMNIENLFVSSVHDTNTMYDRVATFDYIPRSNNGTSLICMRQSGTIYRMPISEVCSKAILNNRNSLLLSNFENTEIDEIRVNNEHEKSNLENVKTILKNLSFEDLDVSEDYFPSGHDEPNNEIEYSELSEEENEGSNDVLDSKRGFELFWKPEKLLEKDISVIMRTRASLGYGLDPMNTVEMIDSSKNLQNNAYIRNTWRWIAIAKASVDDGTMVSGDLDLGYEGVIGIWNGINGISNQDRYRQETILSDKQLNKEMEKIIKLRRKNRDRNSPIANAAGSPKYVQRRLCLIISGWDLSRSDYEDKYNIIMKNGHYEKAAAWAVFFGDIPKAVEILGSAKKERLRLIATAIAGYLAYKDLPGNNAWRQQCRKMSSELDDPYLRVIFAFIADNDWWDILYEPAISLRERLGVALRFLNDTDLTTFLDRTSSTVIENGELEGLILTGITPNGIDLLQSYVNKTSDVQSAALISIFGSPRYFRDQRVDEWIQTYRDMLKSWELFSMRARFDVLRSKLSRTKTGVLTADIKPRQIYIQCQNCKQNINTPRTSSPSSAVSTSAGNYKNGEAYRRNNADYKKFNTGSSEAQAADEKPRHKYCCPHCGSSFPRCAICLMPLGTSNLPFVINGTQSRDPMQTEDSQDGANRELVSRKLKLNEWFSFCLSCNHGMHAGHAEEWFDRHNVCPTPGCTCQCNK
notes: Sea4, S. cerevisiae, endogenous subunit of the SEAC (SEACAT, core), TAP-tagged; Captured by the TAP tag on IgG beads; the complex was released with TEV protease before SDS-PAGE and cryo-EM; Written 'Sea4-TAP'; Four copies in the SEAC; source: endogenous, yeast cells expressing Sea4-TAP; in lysate, purified on IgG-coupled Dynabeads and eluted with TEV protease
  stoichiometry N: 4
